Literature values as cited in publication PMC4065351.

System: Cys2 (position 2, ----ECG----)
Conditions: free reduced glutathione

## Glutathione (GSH, gamma-L-glutamyl-L-cysteinylglycine) (not applicable (ubiquitous low-molecular-weight thiol))
  pKa: 8.93
